Experiment: protease stability score; higher = more stable; yeast display proteolysis, trypsin and chymotrypsin;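 further: relative to predicted unfolded state with 0 unfolded-like and 1 meaning tenfold more protease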

Sequence | protease stability score
SEEEESIHEAQKVFLKIIMTGDWEEIARRLDPDVRLHIGNKKVHGREEAIEFFRKFLEEIRIHDEELKEFSSIDGRVHIRGEIDGTINGVRDRVEVHNVIWKFNGRWFISFREER | 1.36
SEEEESIRHSWEIFETVLKTGDWTDYEKLFDPNDRTEIGDKRLHGMDLLIHILRRLGIKHNHAEMRIRSFEMIGDKAIIDGEIHVVLDFNGREVRSSSEILIIDRKINGRWLVESMHVI | 1.21
SEEEESSEDATKLILRLWKTGDEHEWEHLFDPNVKVHIGDKHYVGMEIAVNTLHMLLRELGIDHIRLRDVKIFNGKVIIVFKIEVNGREFETHIISEKVNGRWRIKSVRFE | 1.39
SEEEESSERATKILRELLKTGNFRLLLELMDPNARLHTHINGVNIHDHGRNLARWLVERIKNAVIKINDEEVRIFNGRVEVDIDGELLINGRNFRVHEHWIFRKIDGKWFFEEVEIRVE | 2.16
SEEEESSHNAIKIWMETMETGNEELYLRLLDPHTRLDVNGKEFIGREVLKMFKKQIDHVKDVDVEHVEVQGDKVILNGRVRGDINGVERNTIEHLIVRKIDGRWRITEFSIR | 0.94
SEEEESSKYAIELLRKVVETGDWRLIQRLADPHAKIEQGDKRLHGRETVTKHLIELGIDHIKFRDSRVQGDKVELDGEVDVNGQHRDTHILIEKIDGVWVWRRFEIK | 0.97
SEEEESTHVWSRLFSHAIETGDEDLLERLIDPHVKLIVDGRELHGREELLTWIRRLFRHLGIDHMEVRIKNFDIINGRIRVEDELLLIVNGKEIRLETKVTVEKFDGKWHNQEVKIE | 0.776
SEEEESWRRIAEEELRIRKTGDEDRFRELHDPSVKIDWNGQIIVGWEELHEILRHIAERYPNLRFEVTHSDVIDGRVHIDGRLNVNGVTLEFHIESVIVNGRTKSIRIEVR | 0.524
SEEEETAYKVMEEVISAWLTGDEDLFNELADPDVRFELEFNGKKIDIIGRELVSKYWRDVIDHIRVEVVLRDYRMIDGRIETETEIYVEVGDKSHSVETRLHMEVIDGRLRTVKIKVR | 2.22
SEEEETIRRVAEVLVHSILTGDEHFEENYLDPNARIDVNGKHFIGRERYLEAIRDLNEHLGWELKDVKLREVNVQGDKMHLKMEIKRHVNGKDLFIDMHVNVWKVNGKWLIRSLRYS | 1.44
SEEEETLEELTRRLLHTWVTGDEQTLKDLADPDVRLIFNGQTYHGREQAERIIKELLDKLGVDRVHSEPRRFNIINGRIRMHVRIHYGDKEYIVHIIATKIDGRWTIKNVIFD | 1.24
SEEEETLKRLAHHMYESYITGDERVIKHLVDPNARSRIGEFDDHGREATEELIRRIDHVHHIDIRDMKIQGNWLHLHVRVDGVVDGKRTEHDMEIIVLKVDGKWIVHSMIQR | 1.05
SEEEETLRDALELVREVLETGDPHLSERLFDPDVRVIYGDKHYHGREYASEMIRFMGVKHFHIKSVRDVDGQVDIDTETHFNGKKYRMHLQTKKIDGKWHLRIIEFR | 1.39
SEEEEVAWEAVEILSTFILTGDFESLNKLFDPHVRVRIGDKELHGRETTNKIFRKEREEHGIEIRHIHVHDVHVINGRIHADVEHKIRINGKEDSRRVEWIIEKYNGRWIVREIRVH | 1.35
SEEEEVIDEAIHILEKHMQTGDWRVLRELADPNMRVHVNGRDLHGREQYIRWIEFLLKRVPNLKLDHFVLDHQHVVNGVAHLEGRLTYTINGVIHKTRTHFHIFKFDGQWRLESQSER | 0.951
SEEEEVLRHLSKTFTRAMLTGDWKFLFEFADPHVRNDVGDWTRIGMHSMIELLELLHRELRITHLHIDEVRVIGNKAEWEGRNNVRINGQEDKRDVRLELEIVDGKMSLVNVEFK | 0.364
SEEEEVMERFVELLIKLLITGDEEVLEHLMDPNVRIQIGDKVYHGREVARDLWRRYHRHWRIHDTEVKHHHVQGEFIEIHISIDGEIDGRREEERIIFFVVKINGRWLLHDIHFN | 2.51
SEEEEWAEIASKLEIEIYLTGDFERFRKFADPHVRYEIHIDGREFKIHGMELYSEWLLRFKGVRLFIKDERISVIGDKLYIHINGDLEFNGRRQDVHFEFLTLKVDGRWIVKKIRNESR | 1.59
SEEEEWAHELMRLLIEFNETGDEHELHNLIDPNVRIVIGEYTIIGREIAIEWTRQARIKRVHIEDYRFQGDKLHVDSRSNGKYGDKEDTLKVEIIVEKINGKWVVREVRVK | 2.06
SEEEEWIIKVLRELTKSMETGDEDHLHHLADPDVRLHVGDKEFHGREDFKKWYTHLRIKHFELTDMRIQGEKAHLKVRVHMRYGDKEDRKEVDFTMIKIDGRWYLHSVHVR | 2.09
